Values of other authors, collected in patent US20150316548A1, “PROGRANULIN AS MARKER FOR AUTOIMMUNE DISORDERS” (UNIVERSITAET DES SAARLANDES, priority 2012, published 2015).

Assays:
[1] = tested on: TNF-α-receptors 1 and 2; conditions: mouse models, versus Etanercept; cited from earlier work
[2] = tested on: TNF-Tg/GRN−/− mice; conditions: cited from earlier work
[3] = tested on: cytotoxic effects of TNF-α; conditions: in vitro; cited from earlier work
[4] = progranulin, reference [1]; cited from earlier work

B1: progranulin: secreted glycoprotein, precursor with N-terminal signal peptide and seven granulin motifs; SEQ ID NO: 1 (protein, listed as Homo sapiens)
chain: MWTLVSWVALTAGLVAGTRCPDGQFCPVACCLDPGGASYSCCRPLLDKWPTTLSRHLGGPCQVDAHCSAGHSCIFTVSGTSSCCPFPEAVACGDGHHCCPRGFHCSADGRSCFQRSGNNSVGAIQCPDSQFECPDFSTCCVMVDGSWGCCPMPQASCCEDRVHCCPHGAFCDLVHTRCITPTGTHPLAKKLPAQRTNRAVALSSSVMCPDARSRCPDGSTCCELPSGKYGCCPMPNATCCSDHLHCCPQDTVCDLIQSKCLSKENATTDLLTKLPAHTVGDVKCDMEVSCPDGYTCCRLQSGAWGCCPFTQAVCCEDHIHCCPAGFTCDTQKGTCEQGPHQVPWMEKAPAHLSLPDPQALKRDVPCDNVSSCPSSDTCCQLTSGEWGCCPIPEAVCCSDHQHCCPQGYTCVAEGQCQRGSEIVAGLEKMPARRASLSHPRDIGCDQHTSCPVGQTCCPSLGGSWACCQLPHAVCCEDRQHCCPAGYTCNVKARSCEKEVVSAQPATFLARSPHVGVKDVECGEGHFCHDNQTCCRDNRQGWACCPYRQGVCCADRRHCCPAGFRCAARGTKCLRREAPRWDAPLRDPALRQLL
modifications: misc (1)..(593) Progranulin
strength of the anti-inflammatory effect [1]: comparable to the effect of the synthetic TNF-blocker “Etanercept”
clinical response of spontaneous arthritis [2]: rapid clinical recovery
plasma levels of cartilage oligomeric matrix protein (COMP) [2]: decreased
protection of cells from cytotoxic effects of TNF-α [3]: protected cells in vitro from cytotoxic effects of TNF-α
half-life [4]: about 40 h
